Values quoted from earlier work as cited in paper PMC5394478.

Columns and labels:
[1] = target: IFNLR1 Box1 (Homo sapiens) (UniProt Q8IU57); test: Biolayer Interferometry
[2] = target: IFNLR1 Box1-Box2 (Homo sapiens) (UniProt Q8IU57); test: Biolayer Interferometry

JAK1 FERM-SH2 (from UniProt P23458)
Kd [1]: 1200 nM
Kd [2]: 70 nM
